Reference: PMC2733758 (The Journal of Cell Biology, 2009)

Biological target: T1, GST∷CED-9(R211E, N212G) (C. elegans, UniProt P41958 1-280, R211E | N212G)
T1 sequence (looked up): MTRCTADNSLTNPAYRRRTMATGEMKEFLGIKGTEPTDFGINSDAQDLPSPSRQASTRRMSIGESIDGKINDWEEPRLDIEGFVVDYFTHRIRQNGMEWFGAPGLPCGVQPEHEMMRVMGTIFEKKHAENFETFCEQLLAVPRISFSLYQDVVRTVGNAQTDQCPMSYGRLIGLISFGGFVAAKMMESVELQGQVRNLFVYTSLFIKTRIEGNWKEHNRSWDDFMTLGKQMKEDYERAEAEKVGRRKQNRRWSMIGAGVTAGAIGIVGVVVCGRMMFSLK
Assay: pull-down

B1: in vitro-translated, [35S]methionine-labeled FZO-1 protein (natural protein, C. elegans, UniProt Q23424 1-774, looked up)
chain: MSGTASLVHTLPASGDSNHRGLHSLKNSRRAADNEPLLRFREAKKVLGDVYGELKDNVAELEGVYKDIKENDFVSSEQREEIEAIGDSIKTIMDTFQRDNMKVVFFGRTSNGKSTTINAMLHEKVLPQGMGHTTCCFLQVEGSEGEVGHLQLDDNPQKIDMKMLGKIGHALSDENSDLPAMGQDSLLKVFHPKKSESGECRLLQNDVVILDSPGVDLSPEFDSWIDKHCLDADVFVLVSNAESTLTQAEKNFFLRVAKKLSKPNVFILNNRWDASAAETENIEDVKKQHLTRFRQFLVDELEVCSEREVNDRIFFVSSREVLESRLKARGLVQKAYQAEGHGTRALEFQNFERHFEHCISRSAIHTKFEAHNRRAHEMIGKMRLNLNSVLTSAAEQRSKLQNNLNESTRTFNECRVNFTQFEKAYREQTEQLRAEVHLKVSADFFEEIARLDAIIDRFEQPFDGSSSGMTKYKEDLAIFVDKCLSSDLEARCTGGLMSRIWNLENDMFQYVTKILAEPYQNKLEEVWRYRAPFKFSICVDVPALVNDFHEDLEFRFTFGLHAIIRRIIAYRSGQPVTAINTNLLTPLSLKQQSEKNSVRDAEASAASEEQAMMTQMVLTSAAFLANGSLGVLVVGGIVYKAVGWRVIAVGGAAYAGLYAWERMRWNSGAKEQHLKEQFRSHLAARMQQVSTAHTHHCETQAIREMDQVFDGLKATVGGVHREMKNDLDVQKTQIDAVDSTIRTLGTIKGKAVFLLRNLEQFASSYLRSDSPPTP
modifications: [35S]methionine-labeled
fold lower affinity than wild-type CED-9: 3 fold
